Measurements published in patent publication US6610541B2, “Recombinant, active caspases and uses thereof” (Thomas Jefferson University, priority 1998, dated 2003).

How the values were obtained:
[1] = molecular target: T1, uncleavable rev-caspase-3 (Homo sapiens, UniProt P42574, D28A/D9A); assay: In vitro translation of uncleavable rev-caspase-3: His6-T7-tag processing; format: biochemical; details: 400 nM DEVD-CHO during in vitro translation
T1 construct: uncleavable rev-caspase-3 (B); made in house; host or cells: in vitro translation in rabbit reticulocyte lysate (TNT Kit, Promega)
T1 sequence (P42574 with tags, fused parts or gaps D9A/D28A): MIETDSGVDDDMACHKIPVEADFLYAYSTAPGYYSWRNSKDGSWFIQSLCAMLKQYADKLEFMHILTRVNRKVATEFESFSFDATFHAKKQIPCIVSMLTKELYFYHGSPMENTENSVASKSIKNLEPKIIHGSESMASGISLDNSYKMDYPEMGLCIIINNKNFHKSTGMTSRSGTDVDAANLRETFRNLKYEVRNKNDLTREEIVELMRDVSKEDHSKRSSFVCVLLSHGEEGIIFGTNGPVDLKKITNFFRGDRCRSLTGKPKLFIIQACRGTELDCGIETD
Text: FIG. 5A is a scanned image of an autoradiogram representing SDS-PAGE analysis of the enzymatic activity of uncleavable rev-caspase-3. Uncleavable rev-caspase-3 was in vitro translated in the absence or the presence of increasing concentrations of DEVD-CHO (SEQ ID NO:52),. The translation product contains a cleavable 35 residues-long His6-T7-tag at its N-terminus. The active site mutant rev-caspase-3 (Rev C/A) was used as a control. The p32 cleavage product without the His6-T7-tag is indicated to the right.
^35S-labeled caspases (wild-type and rev-caspases) were obtained by in vitro translation in the presence of ^35S-methionine using a coupled transcription/translation system in rabbit reticulocyte lysate using TNT Kit (Promega) according to the manufacturer's recommendations. […] Because the in vitro translated products are present at very low concentration in the reaction mixture, the observed cleavage must be attributed to an intramolecular processing within the caspase heterotetramer.
However, to follow the activity of this molecule a cleavable 35 residue long His6-T7-tag N-terminal to the IETD (SEQ ID NO:53) site was introduced (see FIG. 1B). […] Nevertheless, the translated molecule was active as evident from its ability to cleave its T7-tag to form the p32 species (FIG. 5). In the presence of 400 nM DEVD-CHO (SEQ ID NO:52), processing of the T7-tag was inhibited and only the full length p34 species can be seen. […] Thus by mimicking the mature caspase structure, it is possible to design a contiguous active caspase molecules.

rev-caspase-3 [2] = molecular target: T2, rev-caspase-3 (Homo sapiens, UniProt P42574); assay: Autocatalytic processing of in vitro translated rev-caspase-3 (SDS-PAGE/autoradiography); format: biochemical; set-up: T7-tag (15 residues) (N); made in house; host or cells: in vitro translation in rabbit reticulocyte lysate (TNT Kit, Promega)
T2 sequence (P42574 with tags, fused parts or gaps): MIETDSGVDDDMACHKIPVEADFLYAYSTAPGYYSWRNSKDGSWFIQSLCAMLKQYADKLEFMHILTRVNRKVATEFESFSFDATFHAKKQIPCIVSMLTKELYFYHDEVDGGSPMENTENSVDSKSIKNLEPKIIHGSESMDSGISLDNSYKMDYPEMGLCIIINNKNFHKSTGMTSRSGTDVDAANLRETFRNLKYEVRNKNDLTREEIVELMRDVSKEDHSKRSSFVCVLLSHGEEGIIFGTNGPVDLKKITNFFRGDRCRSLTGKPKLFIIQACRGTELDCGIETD
Experimental: (§1) FIGS. 2B and C are scanned images of autoradiograms representing SDS-PAGE analysis of the autoprocessing of rev-caspase-3 and -6, respectively in the presence of varying levels of selected caspase inhibitors. Rev-caspase-3 (FIG. 2B) or rev-caspase-6 (FIG. 2C) were in vitro translated in the presence of increasing concentrations of DEVD-CHO […]; (SEQ ID NO:52), or zVAD-fmk (0-5 μM). The translation products were then analyzed as in FIG. 2A. WT, wild-type.
(§2) ^35S-labeled caspases (wild-type and rev-caspases) were obtained by in vitro translation in the presence of ^35S-methionine using a coupled transcription/translation system in rabbit reticulocyte lysate using TNT Kit (Promega) according to the manufacturer's recommendations.
(§3) To test the effect of selected caspase inhibitors on the autocatalytic activity of rev-caspase-3 and 6, the rev-caspases were translated as in Example 3, but in the presence of varying amounts of inhibitors.

rev-caspase-6 [3] = molecular target: T3, rev-caspase-6 (Homo sapiens, UniProt P55212); assay: Autocatalytic processing of in vitro translated rev-caspase-6 (SDS-PAGE/autoradiography); format: biochemical; set-up: T7-tag (15 residues) (N); made in house; host or cells: in vitro translation in rabbit reticulocyte lysate (TNT Kit, Promega)
T3 sequence (P55212 with tags, fused parts or gaps): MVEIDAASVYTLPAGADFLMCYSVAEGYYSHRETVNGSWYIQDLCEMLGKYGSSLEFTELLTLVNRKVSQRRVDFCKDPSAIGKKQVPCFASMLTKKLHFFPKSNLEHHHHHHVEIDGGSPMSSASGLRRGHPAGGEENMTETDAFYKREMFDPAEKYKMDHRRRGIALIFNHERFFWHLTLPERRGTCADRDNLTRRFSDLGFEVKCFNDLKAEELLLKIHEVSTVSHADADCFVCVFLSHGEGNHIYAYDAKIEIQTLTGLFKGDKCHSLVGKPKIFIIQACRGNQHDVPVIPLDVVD
Experimental: as §1, §2, §3

caspase-6 = molecular target: T4, caspase-6 (Homo sapiens, UniProt P55212); details: earlier observations, J. Biol. Chem. 271:27099; cited from earlier work
T4 sequence (P55212 24-293): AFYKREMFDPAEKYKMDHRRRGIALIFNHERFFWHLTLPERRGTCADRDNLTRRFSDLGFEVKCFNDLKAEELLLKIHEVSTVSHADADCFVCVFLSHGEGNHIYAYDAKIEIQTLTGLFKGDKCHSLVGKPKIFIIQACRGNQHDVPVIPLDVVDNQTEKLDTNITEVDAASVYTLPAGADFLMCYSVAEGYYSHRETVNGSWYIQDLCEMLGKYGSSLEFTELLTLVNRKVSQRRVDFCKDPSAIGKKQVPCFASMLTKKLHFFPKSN

rev-caspase-6 [4] = molecular target: T3, rev-caspase-6; assay: Inhibition of rev-caspase-6 induced apoptosis in transfected MCF-7 cells; format: cell-based; set-up: T7-tag (15 residues) (N); made in house; details: co-transfection with 4-fold expression construct
Experimental: (§4) FIGS. 4A and B are bar diagrams representing the ability of rev-caspase-3 and -6 to induce apoptosis in MCF-7 cells. MCF-7 cells were transiently transfected with either rev-caspase-3 (FIG. 4A), or rev-caspase-6 (FIG. 4B) expression constructs in combination with 4-fold of CrmA, p35 or Bcl-2 expression constructs, or 20 μM zVAD-fmk. Cells transfected with an empty vector or the wild-type caspase-3 or -6 were used as controls.
(§5) To express the rev-caspases in mammalian cells and assay their apoptotic activity, they were amplified with the T7-tag primer and the LS-reverse primers using the pET28a constructs as templates, and subcloned into the mammalian double expression vector pRSC-LacZ (MacFarlane et al., J. Biol. Chem., 272: 25417-25420, 1997; Tsang et al., Bio/Technology, 22: 68, 1997). This vector allows the expression of lacZ under the Rous Sarcoma virus promoter, and the test cDNA under the CMV promoter. To assay for apoptosis, MCF-7 or 293 cells were transfected, using the method commercially available as the Lipofect Amine method (Life Technologies, Inc.), with the pRSC-LacZ constructs in the presence or absence of different apoptosis-inhibitors. 30 h after transfection cells were stained with β-galactosidase and examined for morphological signs of apoptosis. […]

rev-caspase-3 [5] = molecular target: T2, rev-caspase-3; assay: Inhibition of rev-caspase-3 induced apoptosis in transfected MCF-7 cells; format: cell-based; set-up: T7-tag (15 residues) (N); made in house; details: co-transfection with 4-fold expression construct
Experimental: as §4, §5

lamin A = assay: Cleavage of in vitro translated lamin A C-terminus by bacterially expressed caspases; format: biochemical; details: BL-21 bacterial extracts, 2 h at 37° C.
Experimental: FIGS. 3A and B are scanned images representing the SDS-PAGE analysis of the ability of rev-caspase-3 (imaged by western blot) and -6 (imaged by autoradiogram) to cleave PARP and lamin, respectively. In FIG. 3A purified human PARP was incubated with buffer (lane 1) or BL-21 bacterial extracts prepared from bacteria transformed with caspase-3 (lane 2), rev-caspase-3 (lane 3), caspase-6 (lane 4), rev-caspase-6 (lane 5) constructs or empty pET28a vector (lane 6) for 2 h at 37° C. The reaction products were then analyzed by SDS-PAGE and Western blotting with anti-human PARP antibody. In FIG. 3B a cDNA encoding the C-terminus of lamin A (amino acids) which contain the caspase-6 cleavage site (VEIDA); (SEQ ID NO:116), was amplified by PCR and in vitro translated in the presence of ^35S-methionine. The labeled product was incubated with buffer (lane 1) or the BL-21 bacterial extracts listed above for 2 h at 37° C., and then analyzed by SDS-PAGE and autoradiography. The cleavage products are indicated to the right.
At limited caspase concentrations, poly(ADP) ribose polymerase (PARP) is specifically cleaved by caspase-3 and 7 but not other caspases. Similarly, lamin is specifically cleaved by caspase-6 but not other caspases. […]

MCF-7 cells = assay: Induction of apoptosis in transfected MCF-7 cells (round blue apoptotic cells); format: cell-based, human; details: 30 h after transfection
Experimental: as §4
To express the rev-caspases in mammalian cells and assay their apoptotic activity, they were amplified with the T7-tag primer and the LS-reverse primers using the pET28a constructs as templates, and subcloned into the mammalian double expression vector pRSC-LacZ (MacFarlane et al., J. Biol. Chem., 272: 25417-25420, 1997; Tsang et al., Bio/Technology, 22: 68, 1997). This vector allows the expression of lacZ under the Rous Sarcoma virus promoter, and the test cDNA under the CMV promoter. To assay for apoptosis, MCF-7 or 293 cells were transfected, using the method commercially available as the Lipofect Amine method (Life Technologies, Inc.), with the pRSC-LacZ constructs in the presence or absence of different apoptosis-inhibitors. 30 h after transfection cells were stained with β-galactosidase and examined for morphological signs of apoptosis. The percentage of round blue apoptotic cells (mean±SD) were represented as a function of total blue cells under each condition (n≧3).
To determine the apoptotic activity of rev-caspase-3 and 6 in vivo, the rev-caspases were expressed in human MCF-7 cells, transfected as explained above in Example 2.

[6] = at the concentration used (zVAD-fmk 0-5 μM), p35 data not shown

## DEVD-CHO [reference compound]
[1]
  processing of the T7-tag of uncleavable rev-caspase-3: inhibited
rev-caspase-3 [2]; at 40-400 nM concentration, inhibitor present during in vitro translation
  inhibition of the autocatalytic activity of rev-caspase-3: 50-90%
rev-caspase-6 [3]; same concentrations (40-400 nM), inhibitor present during in vitro translation
  effect on the autocatalytic activity of rev-caspase-6: little effect
caspase-6
  inhibition of caspase-6: poorly inhibited

## Bc1-2: overexpressed protein that protects against different forms of apoptosis [reference compound]
rev-caspase-6 [4]
  effect of overexpression on apoptotic activity of rev-caspase-6: did not significantly reduce
rev-caspase-3 [5]
  effect of overexpression on apoptotic activity of rev-caspase-3: did not significantly reduce

B1: baculovirus p35: baculovirus p35, which inhibits the activity of most caspases (protein)
chain: MCVIFPVEIDVSQTIIRDCQVDKQTRELVYINKIMNTQLTKPVLMMFNISGPIRSVTRKNNNLRDRIKSKVDEQFDQLERDYSDQMDGFHDSIKYFKDEHYSVSCQNGSVLKSKFAKILKSHDYTDKKSIEAYEKYCLPKLVDERNDYYVAVCVLKPGFENGSNQVLSFEYNPIGNKVIVPFAHEINDTGLYEYDVVAYVDSVQFDGEQFEEFVQSLILPSSFKNSEKVLYYNEASKNKSMIYKALEFTTESSWGKSEKYNWKIFCNGFIYDKKSKVLYVKLHNVTSALNKNVILNTIK
rev-caspase-6 [4]
  effect of overexpression on apoptotic activity of rev-caspase-6: partially protected
rev-caspase-3 [5]
  effect of overexpression on apoptotic activity of rev-caspase-3: partially protected
rev-caspase-3 [2]; [6]
  inhibitory effect on rev-caspase-3 autocatalytic activity compared with rev-caspase-6: nearly an equal inhibitory effect
rev-caspase-6 [3]; [6]
  inhibitory effect on rev-caspase-6 autocatalytic activity compared with rev-caspase-3: nearly an equal inhibitory effect

B2: rev-caspase-6: contiguous caspase-6 with small subunit fused N-terminal to large subunit, VEID cleavage site between them (SEQ ID NO:36) (protein)
chain: T3 sequence (P55212 with tags, fused parts or gaps)
modifications: OTHER INFORMATION: Rev-Caspase-6 contructed fro m human caspase-6
Lamin A
  cleavage of lamin: efficiently cleaved lamin
MCF-7 cells
  apoptosis in transfected cells: ~90%
rev-caspase-6 [3]; rabbit reticulocyte lysate, 35S-methionine
  autocatalytic processing in the in vitro translation reaction (rev-caspase-6 constructs): able to undergo autocatalytic processing
